Numbering of substitutions follows the chain as printed. Names and notes keep the numbering of the source.
B1: Cdc11-containing septin complex (Cdc10, Cdc3, Cdc12, Cdc11), wild type (complex)
chain 1: MSAATATAAPVPPPVGISNLPNQRYKIVNEEGGTFTVMLCGESGLGKTTFINTLFQTVLKRADGQQHRQEPIRKTVEIDITRALLEEKHFELRVNVIDTPGFGDNVNNNKAWQPLVDFIDDQHDSYMRQEQQPYRTKKFDLRVHAVLYFIRPTGHGLKPIDIETMKRLSTRANLIPVIAKADTLTAQELQQFKSRIRQVIEAQEIRIFTPPLDADSKEDAKSGSNPDSAAVEHARQLIEAMPFAIVGSEKKFDNGQGTQVVARKYPWGLVEIENDSHCDFRKLRALLLRTYLLDLISTTQEMHYETYRRLRLEGHENTGEGNEDFTLPAIAPARKLSHNPRYKEEENALKKYFTDQVKAEEQRFRQWEQNIVNERIRLNGDLEEIQGKVKKLEEQVKSLQVKKSHLK
chain 2: MDPLSSVQPASYVGFDTITNQIEHRLLKKGFQFNIMVVGQSGLGKSTLINTLFASHLIDSATGDDISALPVTKTTEMKISTHTLVEDRVRLNINVIDTPGFGDFIDNSKAWEPIVKYIKEQHSQYLRKELTAQRERFITDTRVHAILYFLQPNGKELSRLDVEALKRLTEIANVIPVIGKSDTLTLDERTEFRELIQNEFEKYNFKIYPYDSEELTDEELELNRSVRSIIPFAVVGSENEIEINGETFRGRKTRWSAINVEDINQCDFVYLREFLIRTHLQDLIETTSYIHYEGFRARQLIALKENANSRSSAHMSSNAIQR
chain 3: MSLKEEQVSIKQDPEQEERQHDQFNDVQIKQESQDHDGVDSQYTNGTQNDDSERFEAAESDVKVEPGLGMGITSSQSEKGQVLPDQPEIKFIRRQINGYVGFANLPKQWHRRSIKNGFSFNLLCVGPDGIGKTTLMKTLFNNDDIEANLVKDYEEELANDQEEEEGQGEGHENQSQEQRHKVKIKSYESVIEENGVKLNLNVIDTEGFGDFLNNDQKSWDPIIKEIDSRFDQYLDAENKINRHSINDKRIHACLYFIEPTGHYLKPLDLKFMQSVYEKCNLIPVIAKSDILTDEEILSFKKTIMNQLIQSNIELFKPPIYSNDDAENSHLSERLFSSLPYAVIGSNDIVENYSGNQVRGRSYPWGVIEVDNDNHSDFNLLKNLLIKQFMEELKERTSKILYENYRSSKLAKLGIKQDNSVFKEFDPISKQQEEKTLHEAKLAKLEIEMKTVFQQKVSEKEKKLQKSETELFARHKEMKEKLTKQLKALEDKKKQLELSINSASPNVNHSPVPTKKKGFLR
chain 4: MSGIIDASSALRKRKHLKRGITFTVMIVGQSGSGRSTFINTLCGQQVVDTSTTILLPTDTSTEIDLQLREETVELEDDEGVKIQLNIIDTPGFGDSLDNSPSFEIISDYIRHQYDEILLEESRVRRNPRFKDGRVHCCLYLINPTGHGLKEIDVEFIRQLGSLVNIIPVISKSDSLTRDELKLNKKLIMEDIDRWNLPIYNFPFDEDEISDEDYETNMYLRTLLPFAIIGSNEVYEMGGDVGTIRGRKYPWGILDVEDSSISDFVILRNALLISHLHDLKNYTHEILYERYRTEALSGESVAAESIRPNLTKLNGSSSSSTTTRRNTNPFKQSNNINNDVLNPASDMHGQSTGENNETYMTREEQIRLEEERLKAFEERVQQELLLKRQELLQREKELREIEARLEKEAKIKQEE
B2: Cdc12 T75A septin complex (Cdc10, Cdc3, Cdc12 T75A, Cdc11) (complex)
chain 1: B1 chain 1 with T75A
chain 2: B1 chain 2
chain 3: B1 chain 3
chain 4: B1 chain 4
B3: Double mutant septin complex (Cdc10, Cdc3, Cdc12 T75A, Cdc11 D65T-GFP) (complex)
chain 1: B1 chain 1 with T75A
chain 2: B1 chain 2
chain 3: B1 chain 3
chain 4: B1 chain 4 with D65T
B4: Cdc11 D65T septin complex (Cdc10, Cdc3, Cdc12, Cdc11 D65T-GFP) (complex)
chain 1: B1 chain 1
chain 2: B1 chain 2
chain 3: B1 chain 3
chain 4: B1 chain 4 with D65T

Biological target: the molecule itself
Test: TIRF microscopy of filament polymerisation

Protein | binding result
B1 | binds
B2 | binds
B3 | binds
B4 | binds

Reference: article doi:10.1101/209643 (bioRxiv, 2017)
